Test results: publication PMC3814758, “The Geminin and Idas Coiled Coils Preferentially Form a Heterodimer That Inhibits Geminin Function in DNA Replication Licensing*” (The Journal of Biological Chemistry, 2013)

Legend:
[1] = molecular target: the molecule itself; assay: SAXS; purified complexes at three concentrations each (0.5, 1.0, 2.5 mg/ml tGeminin-tGeminin; 1.0, 2.0, 6.0 mg/ml tIdas-tIdas and tIdas-tGeminin); X13 beamline, EMBL-Hamburg; Guinier plot and distance distribution
Cdt1 (115-353) [2] = molecular target: Cdt1 (115-353) (UniProt Q9H211)
Cdt1 (115-353) [3] = molecular target: T1, Cdt1 (115-353) (UniProt Q9H211 115-353); assay: ITC
T1 chain: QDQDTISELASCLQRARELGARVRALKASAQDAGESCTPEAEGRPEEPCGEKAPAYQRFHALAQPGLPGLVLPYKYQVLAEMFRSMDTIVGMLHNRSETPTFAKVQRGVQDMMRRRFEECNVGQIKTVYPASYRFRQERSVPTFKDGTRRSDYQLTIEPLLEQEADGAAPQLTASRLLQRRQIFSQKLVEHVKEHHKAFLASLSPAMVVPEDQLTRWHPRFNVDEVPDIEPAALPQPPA

Cdt1 (115-353) [4] = molecular target: Cdt1 (115-353) (UniProt Q9H211); assay: ITC; 25 °C; 25 mM HEPES/NaOH pH 7.5, 150 mM NaCl, 0.5 mM Tris(2-carboxyethyl)phosphine; 28 injections of 10 μl of the protein dimers (2-80 μM) into 1.4 ml of Cdt1 (0.2-10 μM)
Cdt1 (115-353) [5] = molecular target: T2, Cdt1 (115-353) (UniProt Q9H211 115-353); assay: cell-based or functional assay
T2 sequence (looked up): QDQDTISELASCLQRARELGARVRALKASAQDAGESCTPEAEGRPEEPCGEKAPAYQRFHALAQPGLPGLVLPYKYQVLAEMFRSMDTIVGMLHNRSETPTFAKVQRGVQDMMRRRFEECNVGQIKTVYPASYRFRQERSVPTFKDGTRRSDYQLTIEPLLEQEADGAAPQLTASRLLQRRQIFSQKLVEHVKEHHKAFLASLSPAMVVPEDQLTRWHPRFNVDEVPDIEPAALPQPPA

Cdt1 (115-353) [6] = molecular target: T2, Cdt1 (115-353); assay: ITC; 25 °C; 25 mM HEPES/NaOH pH 7.5, 150 mM NaCl, 0.5 mM Tris(2-carboxyethyl)phosphine; 28 injections of 10 μl of the protein dimers (2-80 μM) into 1.4 ml of Cdt1 (0.2-10 μM); settings: both partners purified

B1: tIdas, coiled-coil domain of Idas (residues 173-245) (domain or fragment, UniProt D6RGH6 173-245, looked up)
chain: PDVPPPEQYWKEVADQNQRALGDALVENNQLHVTLTQKQEEIASLKERNVQLKELASRTRHLASVLDKLMITQ
notes: Idas (Multicilin), residues 173-245 (coiled-coil construct tIdas); Single chain, used for the rows of tIdas with itself and with tGeminin; Cleavable His tag; also called Multicilin; source: expressed on its own, or co-expressed with Geminin in Escherichia coli; purified
For B1, the “stoichiometry N” value [1] was 2.

B2: tGeminin-tGeminin homodimer (complex)
chain: TQESFDLMIKENPSSQYWKEVAEKRRKALYEALKENEKLHKEIEQKDNEIARLKKENKELAEVAEHVQYMAELIERLNG
Work on B2 yielded an IC50 of inhibition of replication licensing and DNA replication of sperm DNA in Xenopus egg extract (Cdt1 of the extract), increasing concentrations of the dimer (Cdt1 (115-353) [2]) of 50 nM, a Kd (Cdt1 (115-353) [3]) of 2.6 nM and a Kd (Cdt1 (115-353) [4]) of 3.5 nM.

B3: tGeminin, coiled-coil domain of Geminin (residues 82-160) (domain or fragment, human, UniProt O75496 82-160, looked up)
chain: TQESFDLMIKENPSSQYWKEVAEKRRKALYEALKENEKLHKEIEQKDNEIARLKKENKELAEVAEHVQYMAELIERLNG
notes: Geminin, human, residues 82-160 (coiled-coil construct tGeminin); Single chain, used for the rows of tGeminin with itself and with tIdas; Cloned both with a cleavable His tag and without tag; In the co-expressed complex the tag was on Idas; source: expressed on its own, or co-expressed with Idas in Escherichia coli; purified
B3 was tested, and the “stoichiometry N” value [1] was 2.

B4: tIdas-tGeminin heterodimer (complex)
chain 1: PDVPPPEQYWKEVADQNQRALGDALVENNQLHVTLTQKQEEIASLKERNVQLKELASRTRHLASVLDKLMITQ
chain 2: TQESFDLMIKENPSSQYWKEVAEKRRKALYEALKENEKLHKEIEQKDNEIARLKKENKELAEVAEHVQYMAELIERLNG
notes: Idas (Multicilin), residues 173-245; Geminin, human, residues 82-160; Preformed heterodimer; also called tGeminin-tIdas; Idas-Geminin heterodimer; source: co-expression in Escherichia coli, purified (IMAC by the His tag on Idas, size exclusion chromatography); copies: 1 + 1
For B4, the “IC50 of inhibition of replication licensing and DNA replication of sperm DNA in Xenopus egg extract (Cdt1 of the extract), increasing concentrations of the dimer” value (Cdt1 (115-353) [5]) was roughly 720 nM, the Kd (Cdt1 (115-353) [6]) was roughly 35 nM and the “dH less favourable than for tGeminin-tGeminin binding to Cdt1” value (Cdt1 (115-353) [6]) was 21.1 kcal/mol.
